Measured values published in article PMC4022514, “The C-Terminal Domain from S. cerevisiae Pat1 Displays Two Conserved Regions Involved in Decapping Factor Recruitment” (PLoS ONE, 2014).

Legend:
[1] = target: T1, Edc3 (two-hybrid fusion to the DNA binding domain) (S. cerevisiae, UniProt P39998 1-551); assay: two-hybrid; yeast strain BSY2475, isogenic to MAV203 but lacking Edc3 (Δedc3); β-galactosidase activity by Beta-Glo; Pat1 fused to Gal4AD; settings: partners not purified
T1 construct: Edc3, S. cerevisiae; The bridge between Pat1 and Rps28 in the wild-type host strain is the strain's endogenous Edc3, the same protein without the fusion; source: yeast two-hybrid fusion
T1 sequence (looked up): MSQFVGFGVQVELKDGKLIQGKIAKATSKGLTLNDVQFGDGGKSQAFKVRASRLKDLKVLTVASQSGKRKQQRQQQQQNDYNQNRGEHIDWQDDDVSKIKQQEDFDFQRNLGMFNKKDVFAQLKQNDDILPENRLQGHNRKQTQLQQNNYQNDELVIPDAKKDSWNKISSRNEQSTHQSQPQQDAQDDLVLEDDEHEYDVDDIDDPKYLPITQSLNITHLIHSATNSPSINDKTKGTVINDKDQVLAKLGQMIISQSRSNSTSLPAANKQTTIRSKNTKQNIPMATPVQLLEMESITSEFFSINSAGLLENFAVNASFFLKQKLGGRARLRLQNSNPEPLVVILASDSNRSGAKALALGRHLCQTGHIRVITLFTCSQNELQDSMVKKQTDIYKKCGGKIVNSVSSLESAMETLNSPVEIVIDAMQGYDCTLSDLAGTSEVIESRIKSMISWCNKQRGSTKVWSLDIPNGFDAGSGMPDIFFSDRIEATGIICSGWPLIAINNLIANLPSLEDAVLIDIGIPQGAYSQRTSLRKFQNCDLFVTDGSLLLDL

Scd6 (two-hybrid fusion) = target: T2, Scd6 (two-hybrid fusion) (S. cerevisiae, UniProt P45978 1-349); assay: as above; settings: partners not purified
T2 construct: Scd6, S. cerevisiae; source: yeast two-hybrid fusion
T2 sequence (looked up): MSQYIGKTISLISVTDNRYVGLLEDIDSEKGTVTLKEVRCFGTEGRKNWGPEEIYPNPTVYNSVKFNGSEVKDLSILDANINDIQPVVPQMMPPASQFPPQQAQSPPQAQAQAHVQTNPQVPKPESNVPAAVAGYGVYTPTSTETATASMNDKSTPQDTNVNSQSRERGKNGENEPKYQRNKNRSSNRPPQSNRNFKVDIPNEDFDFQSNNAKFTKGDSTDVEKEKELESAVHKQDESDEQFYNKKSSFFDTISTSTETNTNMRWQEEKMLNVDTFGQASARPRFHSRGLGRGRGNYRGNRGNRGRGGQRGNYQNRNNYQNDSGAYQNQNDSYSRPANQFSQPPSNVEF

- fold two-hybrid signal, Δedc3 strain over wild type strain [1]: > 60 fold
- fold two-hybrid signal, Δedc3 strain over wild type strain (Scd6 (two-hybrid fusion)): 3 fold
B1: full-length ScPat1 (two-hybrid fusion to Gal4AD) (natural protein, S. cerevisiae, UniProt P25644 1-796, looked up)
chain: MSFFGLENSGNARDGPLDFEESYKGYGEHELEENDYLNDETFGDNVQVGTDFDFGNPHSSGSSGNAIGGNGVGATARSYVAATAEGISGPRTDGTAAAGPLDLKPMESLWSTAPPPAMAPSPQSTMAPAPAPQQMAPLQPILSMQDLERQQRQMQQQFMNFHAMGHPQGLPQGPPQQQFPMQPASGQPGPSQFAPPPPPPGVNVNMNQMPMGPVQVPVQASPSPIGMSNTPSPGPVVGATKMPLQSGRRSKRDLSPEEQRRLQIRHAKVEKILKYSGLMTPRDKDFITRYQLSQIVTEDPYNEDFYFQVYKIIQRGGITSESNKGLIARAYLEHSGHRLGGRYKRTDIALQRMQSQVEKAVTVAKERPSKLKDQQAAAGNSSQDNKQANTVLGKISSTLNSKNPRRQLQIPRQQPSDPDALKDVTDSLTNVDLASSGSSSTGSSAAAVASKQRRRSSYAFNNGNGATNLNKSGGKKFILELIETVYEEILDLEANLRNGQQTDSTAMWEALHIDDSSYDVNPFISMLSFDKGIKIMPRIFNFLDKQQKLKILQKIFNELSHLQIIILSSYKTTPKPTLTQLKKVDLFQMIILKIIVSFLSNNSNFIEIMGLLLQLIRNNNVSFLTTSKIGLNLITILISRAALIKQDSSRSNILSSPEISTWNEIYDKLFTSLESKIQLIFPPREYNDHIMRLQNDKFMDEAYIWQFLASLALSGKLNHQRIIIDEVRDEIFATINEAETLQKKEKELSVLPQRSQELDTELKSIIYNKEKLYQDLNLFLNVMGLVYRDGEISELK
notes: Pat1, S. cerevisiae, full-length; pBS2374 is named only as the template for the Gal4AD-Pat1ΔC68 plasmid pBS4907; also called wild type ScPat1; full-length Pat1 protein; source: yeast two-hybrid fusion
